This note sets out measurements from patent EP4752156A1 (Shanghai Yunxuan Biotechnologies, Inc., dated 2026).

Usually Kd stands for the equilibrium constant for the complex coming apart. Read a low Kd as a tighter complex. What is called koff is the first-order rate constant of dissociation. Lower therefore signals a long-lived complex. As a reminder, the kon is the second-order rate constant of association. High values mean fast association, low ones slow association.

To fix the notation:
B1: h12 (antibody, V domains shown)
VH: QVQLVESGGGLVKPGGSLRLSCAASGFSFSDSYMSWLRQAPGKGLEWVSYISSSSSYTKYTDSVKGRFTISRDNAKNSLYLQMSSLRAEDTAVYYCAREGSPGGQGTLVTVSS
VL: DVVMTQSPLSLPVTLGQPASFSCRSSQSLVFTDGNTFLSWFLQRPGQSPRRLIYRVSNRDPGVPDRFSGSGSGTDFTLKISRVEAEDVGVYYCMQGTQWPFTFGPGTKVDIKR
B2: h25 (antibody, V domains shown)
VH: EVQLVESGGGLVKRGGSLRLSCAASGFTFSSYSMHWVRQAPGKGLEWVSSISSRSTYIYYADSVKGRFTISRDNAKNSLYLQMNSLSAEDTAVYYCARGSGSYYVFDYWGQGTLVTVSS
VL: ELVMTQSPATLSVSPGERATLSCRASQSVSSNLAWYQQKPGQAPRLLIYGASSRATNIPARFSGSGSGTEFTLTISSLQSEDFAVYYCQQYDNWPMYSFGQGTKLEIKR
B3: h1 (antibody, V domains shown)
VH: EVQLVESGGGLVKPGGSLRLSCAASGFTFSSYSMSWVRQAPGKGLEWVSSISSRSNYIYYADSVKGRFTISRDNAKNSLYLQVNSLRAEDTAVYYCARGSGSYYVFDYWGQGTLVTVSS
VL: EIVMTQSPATLSVSPGDRATLSCRASQSISSDLAWYQQKPGQAPRLLIYAASTRATGFPARFSGSGSGTEFTLTISSLQPEDFAVYYCQQYNNWPMYAFGQGTKLEIKR
B4: h27 (antibody, V domains shown)
VH: EVQLVESGGGLVKPGGSLRLSCAASGFTFSSYSMSWVRQAPGKGLEWVSSISSRSNYIYYADSVKGRITISRDNAKNSLYLQMNSLRAEDTAVYYCARGSGSYYVFDYWGQGTLVTVSS
VL: ELVMTQSPATLSMSPGDRATLSCRASQSIRSDLAWYQQKPGQAPRLLIYDASTRATGIPARFSGSGSGTEFTLSISSLQSEDFAVYYCQQYNNWPMYTFGQGTKLEIKR
B5: h4 (antibody, V domains shown)
VH: QVQLVESGGGLVKPGGSLRLSCAASGFTFSDHYMSWIRQTPGKGLEWVSYISSSGTYTNYADSVKGRFIISRDNAKNSLFLQMNSLRAEDTAVYYCAREGSPGGQGTLVTVSS
VL: DVVMTQSPLSLPVTLGQPASISCRSSQSLVFSDGNTYLNWFQQRPGQSPRRLIYKVSDRDPGVPERFSGSGSGTDFTLKISRVEAEDIGVYYCMQGSHWPFTFGPGTKVDIKR
B6: h14 (antibody, V domains shown)
VH: QVQLVESGGGLVEPGGSLRLSCAASGFTFSDHYMSWIRQAPGRGLEWVSYISNSGGYTNYADSVKGRFTISRDNAKNSLYLQMNSLRAEDTAVYYCAREGSPGGQGTLVTVSS
VL: DVVMTQSPLSLPVTLGQPASMSCRSSQSLVDSDGNTYLSWFQQRPGQSPRRLIYKVSDRDSGVPDRFSGGGSGTDFTLKISRVEAEDVGIYYCMQGTRWPFTFGPGTKVDIKR
B7: h2 (antibody, V domains shown)
VH: QVQLVESGGGLVKPGGSLRLSCAASGFTFSAHYMSWIRQAPGKGLEWVSYISPSSSYTVYADSVKGRFTISRDNAKNSLFLQMNSLRAEDTAVYYCAREGSPGGQGTLVTVSS
VL: DVVMTQSPLSLPVTLGQPASISCRPSQSLVDSDGNTYLSWFQQRPGQSPRRLIYKVSDRDSGVPDRFSGSGSVTDFTLKISRVEAEDVGIYYCMQGTHWPFTFGPGTKVDIKR
B8: h19 (antibody, V domains shown)
VH: QVQLVESGGGLVKPGGSLRLSCAASGFSFSDSYMSWIRQAPGKGLEWVSYISSSSSYTNYADSVKGRFTISRDNAKNSLYLQMNSLRVEDTAVYYCAREGSPGGQGTLVTVSS
VL: DVVLTQSPLSLPVTLGQPASISCRSSQSLVDSDGNTYLSWFQQRPGQSPRRLIYRVSNRDSGVPDRFSGSGSGTDFTLKISRVEAEDVGVYYCMQGTHWPFTFGPGTKVDIKR
B9: h22 (antibody, V domains shown)
VH: QVQLVESGGGLVKPGGSLRLSCAASGFTFSAHYMSWIRQAPGKGLEWVSYISPSSSYTVYADSVKGRFTISRDNAKNSLFLQMNSLRAEDTAVYYCAREGSPGGQGTLVTVSS
VL: DVVMTQSPLSLPVTLGQPASISCRSSQNLVDSDGNTYLSWFQQRPGQSPRRLIYKVSDRDSGVPDRFSGSGSGTDFTLKINRVEAEDIGIYYCMQGSHWPFTFGPGTKVDIKR
B10: h5 (antibody, V domains shown)
VH: QVQLVESGGGLVKPGGSLRLSCAASGFTFSDHYMSWIRQAPGKGLEWVAYISSSSTYTKYGDSVKGRFTISRDNAKNSLYLQMNSLRAEDTAVYYCAREGSPGGQGTLVTVSS
VL: DVVMTQSPLSLPVTLGQPASISCRSSQSLVFSDGNTYLSWFQQRPGQSPRRLIFKVSDRDSGVPDRFSGSGSGTDFTLKISRMEAEDVGVYYCMQGTQWPFTFGPGTKVDIKR
B11: 18 (antibody, V domains shown)
VH: QVQLVESGGGLVKPGGSLRLSCAASGFTFSASYMSWIRQAPGKGLEWVSYISSSSTYTNYADSVKGRFTISRDNAKNSLYLQMDSLRAEDTAMYFCAREGSPGGQGTLVTVSS
VL: DVVMTQSPLSLPVTLGQSASISCRSSQSLVYSDGDTFLSWFQQRPGQSPRRLIYMVSNRDPGVPDRFSGSGSGTDFTLKISRVEAEDVGIYYCMQGTNWPFTFGPGTRVDIKR
B12: h21 (antibody, V domains shown)
VH: QVQLVESGGGLVKPGGSLRLSCAASGFTFSAHYMSWIRQAPGKGLEWVSYISPSSSYTVYADSVKGRFTISRDNAKNSLFLQMNSLRAEDTAVYYCAREGSPGGQGTLVTVSS
VL: DVVMTQSPLSLPVTLGQPASISCRSTQSLVDSDGNTYLSWFQQRPGQSPRRLIYKVSDRDSGVPDRFSGSGSGTDFTLKISRVEAEDIGIYYCMQGTHWPFTFGPGTKVDIKR
B13: h15 (antibody, V domains shown)
VH: QVQLVESGGGLVRPGGSLRLSCAASGFTFSDHYMSWIRQAPGKGLEWVSYISGSSSYTKYADSVKGRFTISRDNAKNSLYLQMNSLRAEDTAVYYCAREGSPGGQGTLVTVSS
VL: DVVLTQSPLSLPVTLGQPASISCRSSQSLVFSDGNTFLAWFQQRPGQSPRRLIYRISNRDSGVPDRFSGSGSDTDFTLKISRVEAEDVGVYYCMQGTQWPFTFGPGTKVDIKR
B14: h11 (antibody, V domains shown)
VH: QVQLVESGGGLVKPGGSLRLSCEASGFTFSAHYMSWIRQAPGKGLEYVSYISGSSSYTNYVDSVKGRFTISRDNAKNSLYLQMNSLRVEDTAVYYCAREGSPGGQGTLVTVSS
VL: DVVLTQSPLSLPVTLGQPASISCRSSQSLVDSDGNTYLSWFHQRPGQSPRRLIYKVSDRDSGVPDRFSGSGSGTDFTLKISRVEAEDVGVYYCMEGTHWPFTFGPGTKVDIKR
B15: h20 (antibody, V domains shown)
VH: QVQLVESGGGLVKPGGSLRLSCAASGFSFSDSYMSWIRQAPGKGLEWVSYISSSSSYTNYVDSVKGRFTISRDNAKNSLYLQMNSLRVEDTAVYYCAREGSPGGQGTLVTVSS
VL: DVVMTQSPLSLPVTLGQPASISCRSSQSLVDSDGNTYLSWFQQRPGQSPRRLIYRVSNRDSGVPDRFSGSGSGTDFTLKISRVEAEDVGVYYCMQGTHWPFTFGPGTKVDIRR
B16: h10 (antibody, V domains shown)
VH: QVQLVESGGGLVKPGGSLRLSCEASGFTFSAHYMSWIRQAPGKGLEYVSYISSSSSYTNYVDSVKGRFTISRDNAKNSLYLQMNSLRVEDTAVYYCAREGSPGGQGTLVTVSS
VL: DVVLTQSPLSLPVTLGQPASISCRSSQSLVDSDGNTYLSWFHQRPGQSPRRLIYKVSDRDSGVPDRFSGSGSGTDFTLKISRVEAEDVGVYYCMEGTHWPFTFGPGTKVDIKR
B17: h17 (antibody, V domains shown)
VH: QVQLVESGGGLVEPGGSLRLSCAASGFTFSDHYMSWIRQAPGRGLEWVSYISNSGGYTNYADSVKGRFTISRDNAKNSLYLQMNSLRAEDTAVYYCAREGSPGGQGTLVTVSS
VL: DVVMTQSPLSLPVTLGQPASMSCRSSQSLVDSDGNTYLSWFQQRPGQSPRRLIYKVSDRDSGVPDRFSGGGSGTDFTLKIRRVEAEDVGIYYCMQGTRWPFTFGPGTKVDIKR
B18: h16 (antibody, V domains shown)
VH: QVQLVESGGGLVKPGGSLRLSCEASGFTFSAHYMSWIRQAPGKGLEYVSYISSSSSYTNYADSVKGRFTISRDNAKNSLYLQMNSLRAEDTAVYYCAREGSPGGQGTLVTVSS
VL: DVVLTQSPLSLPVTLGQPASISCRSSQSLVDSDGNTYLSWFHQRPGQSPRRLIYKVSDRDSGVPDRFSGSGSGTDFTLKISRVEAEDVGVYYCMEGTHWPFTFGPGTKVDIKR
B19: h13 (antibody, V domains shown)
VH: QVQLVESGGGLVKPGGSLRLSCAASGFSFSDSYMSWLRQAPGKGLEWVSYISSSSSYTKYADSVKGRFTISRDNAKNSLYLQMNSLRAEDTAVYYCAREGSPGGQGTLVTVSS
VL: DVVLTQSPLSLPVTLGQPASFSCRSSQSLVFTDGNTFLSWFLQRPGQSPRRLIYRVSNRDPGVPDRFSGSGSGTDFTLKISRVEAEDVGVYYCMQGTQWPFTFGPGTKVDIKR
B20: murine monoclonal antibody 1D6 (antibody, V domains shown)
VH: QIQLVQSGPELKKPGETVKISCKASGYTFTNYAVNWVIQAPGKGLKWMGWINAYTGEPTYADDFKGRFAFSLETSASTAYLQINNLKNEDMGIYFCARGGYDTYALDYWGQGTSVTVSS
VL: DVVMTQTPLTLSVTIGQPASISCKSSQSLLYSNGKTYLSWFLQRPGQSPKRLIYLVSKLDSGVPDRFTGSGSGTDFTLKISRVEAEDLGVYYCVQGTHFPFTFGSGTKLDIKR
notes: also called 106 (anti-zzs01); ID6
B21: murine monoclonal antibody F11 (antibody, V domains shown)
VH: EVQLQQSGPELVKPGASVKISCKTSGYTFTEYTMHWVKQSHGKTLEWIGGIYPNNSGTRYNQKFRGKATLTADKSSSTAYMELRSLTTEDSAVYYCHRYELYWYFDVWGAGTTVTVSS
VL: DIVLTQSPASLAVSLGQRATISCRASKSVSTAGYSYMHWYQQKPGQPPKLLIYLTSNLESGVPARFSGSGSGTDFTLNIHPVEEEDAATYYCQHSREVPYTFGGGTKLEIKR
notes: also called F11 (anti-zzs05)

T1 sequence (P08515 1-218, tags or fused parts left off): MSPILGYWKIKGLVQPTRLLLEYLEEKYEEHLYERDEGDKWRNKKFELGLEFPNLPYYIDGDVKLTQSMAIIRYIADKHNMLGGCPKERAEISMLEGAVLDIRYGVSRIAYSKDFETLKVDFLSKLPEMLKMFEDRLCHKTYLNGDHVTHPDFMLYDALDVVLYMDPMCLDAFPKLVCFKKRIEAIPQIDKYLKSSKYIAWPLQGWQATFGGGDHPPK

The first assay has as its target T1, GST-ZZS01 fusion protein (UniProt P08515 1-218 = GST). Briefly: Biacore SPR as in Example 3.3. (SPR reads the build-up and loss of mass on a sensor chip optically.)
The molecule B1 displayed a Kd of 6.03 nM. That is a single-digit nanomolar value.

Consider B2, for which the Kd stood at 0.32 nM. This Kd lies about 19-fold lower than the previous one.

B3 had a Kd of 0.289 nM. This Kd and that of the molecule before are within 1.5-fold of each other.

The molecule B4 came in with a Kd of 0.16 nM.

On to B5, for which binding was characterised by a dissociation constant (Kd) of 2.86 nM.

B6 yielded a Kd of 4.39 nM.

For B7, the Kd was 5.24 nM.

B8: the equilibrium dissociation constant (Kd) turned out to be 3.53 nM.

The molecule B9 displayed a Kd of 0.104 nM.

For the molecule B10, binding was characterised by a dissociation constant (Kd) of 10.1 nM.

In turn, B11 returned a Kd of 3.46 nM.

Molecule B12 showed a Kd of 1.48 nM.

Molecule B13 showed a Kd of 5.78 nM.

Turning to B14, the Kd was 0.652 nM.

Turning to B15, binding was put at a Kd of 2 nM.

As to B16, the Kd worked out at 0.0847 nM.

Turning to B17, the Kd was determined as 3.18 nM.

Take B18: the Kd turned out to be 2.17 nM. This Kd and that of the molecule before are within 1.5-fold of each other.

B19: the Kd is 3.66 nM.

In the next assay the target is T1, GST-ZZS01 fusion protein. Description: Biacore SPR, 25 C; GST-antigen captured on anti-GST CM5 chip, antibody injected.
The molecule B20 displayed a Kd of 4.82 nM, a dissociation rate constant (koff) of 1.19e-05 s⁻¹ and a kon of 2480 M⁻¹ s⁻¹.

The target in a further assay is GST-ZZS05 fusion protein (UniProt P08515 1-218 = GST). The assay is described as above.
Sequence of GST-ZZS05 fusion protein (P08515 1-218, tags or fused parts left off): as above
B21: binding was characterised by a dissociation constant (Kd) of 6.9 nM, the off-rate (koff) amounted to 0.000949 s⁻¹ and the kon amounted to 137000 M⁻¹ s⁻¹.
